Substitutions are numbered along the chain they refer to. Where two headings read alike, the source gives them in different places.
B1: G04 (antibody, V domains shown)
VH: QVQLVQSGAEVKKPGSSVKVSCKASGGTFSSYAISWVRQAPGQGLEWMGGIIPIFGTASYAQKFQGRVTITADESTSTAYMELSSLRSEDTAVYYCARTPYYDSSGYLDVWGQGTMVTVSS
VL: DIQMTQSPSSLSASVGDRVTITCQASQDISNYLNWYQQKPGKAPKLLIYDASNLATGVPSRFSGSGSGTDFTFTISSLQPEDIATYYCQQSLDLPPTFGGGTKVEIK
notes: also called antibody G04
B2: K01 (antibody, V domains shown)
VH: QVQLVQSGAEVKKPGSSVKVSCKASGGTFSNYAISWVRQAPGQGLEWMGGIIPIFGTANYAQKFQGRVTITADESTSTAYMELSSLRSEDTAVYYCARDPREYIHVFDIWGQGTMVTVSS
VL: DIQMTQSPSSLSASVGDRVTITCRASQSISSYLNWYQQKPGKAPKLLIYGASSLQSGVPSRFSGSGSGTDFTLTISSLQPEDFATYYCQQAYSFPWTFGGGIKVEIK
notes: also called antibody K01
B3: L01 (antibody, V domains shown)
VH: QVQLVQSGAEVKKPGSSVKVSCKASGGTFSSYAISWVRQAPGQGLEWMGSIIPIFGTANYAQKFQGRVTITADESTSTAYMELSSLRSEDTAVYYCARDPVGARYEVFDYWGQGTLVTVSS
VL: EIVMTQSPATLSVSPGERATLSCRASQSVSSNLAWYQQKPGQAPRLLIYSASTRATGIPARFSGSGSGTEFTLTISSLQSEDFAVYYCQQANTFPLTFGGGTKVEIK
notes: also called antibody L01
B4: J02 (antibody, V domains shown)
VH: EVQLLESGGGLVQPGGSLRLSCAASGFTFSVYAMSWVRQAPGKGLEWVSAISGSGDSTVYADSVKGRFTISRDNSKNTLYLQMNSLRAEDTAVYYCAKPSYQPIYWGQGTLVTVSS
VL: B2 VL with L11V, S28G, Y32W, N34A, G50A, Y92A, F94Y, W96L, I102T
notes: also called mAb J02; antibody J02
B5: K02 (antibody, V domains shown)
VH: QVQLVQSGAEVKKPGSSVKVSCKASGGTFSSSAIGWVRQAPGQGLEWMGGIWPIFGTALYAQKFQGRVTITADESTSTAYMELSSLRSEDTAVYYCARDPREYIHVFDIWGQGTMVTVSS
VL: B2 VL
notes: also called mAb K02; antibody K02
B6: G05 (antibody, human IgG1, kappa, V domains shown)
VH: B1 VH with S31G, Y32Q, I54S, S59R
VL: DIQMTQSPSSLSASVGDRVTITCQASHDIDNYLNWYQQKPGKAPKLLIYYASNLKTGVPSRFSGSGSGTDFTFTISSLQPEDIATYYCQQSRASPPTFGGGTKVEIKR
notes: also called mAb G05; antibody G05
B7: C03 (antibody, human IgG1, kappa, V domains shown)
VH: QLQLQESGPGLVKPSETLSLTCTVSGGSISSSAYYWAWIRQPPGKGLEWIGSIYLSGSTTYNPSLKSRVTISVDTSKNQFSLKLSSVTAADTAVYYCARDGRYQSRSPDYYYGMDVWGQGTTVTVSS
VL: EIVLTQSPGTLSLSPGERATLSCKASQSVSSSYLAWYQQKPGQAPRLLIYGAFSRANGIPDRFSGSGSGTDFTLTISRLEPEDFAVYYCQQLVSYPFTFGGGTKVEIKR
notes: also called mAb C03; antibody C03
B8: L02 (antibody, V domains shown)
VH: QVQLVQSGAEVKKPGASVKVSCKASGYTFAGYNMHWVRQAPGQGLEWVGIINPNSGWTNYAQKFQGRVTMTRDTSVSAAYMELSRLRSDDTAVYYCARDPVGARYEVFDYWGQGTLVTVSS
VL: B3 VL with N32A, S52F, T56S, N92W, T93A
notes: also called mAb L02; antibody L02

Legend:
[1] = target: T1, ALK7 on differentiated 3T3-L1 adipocytes (UniProt Q8K348 26-493, limits assumed); experiment: cell-based or functional assay
T1 sequence (looked up): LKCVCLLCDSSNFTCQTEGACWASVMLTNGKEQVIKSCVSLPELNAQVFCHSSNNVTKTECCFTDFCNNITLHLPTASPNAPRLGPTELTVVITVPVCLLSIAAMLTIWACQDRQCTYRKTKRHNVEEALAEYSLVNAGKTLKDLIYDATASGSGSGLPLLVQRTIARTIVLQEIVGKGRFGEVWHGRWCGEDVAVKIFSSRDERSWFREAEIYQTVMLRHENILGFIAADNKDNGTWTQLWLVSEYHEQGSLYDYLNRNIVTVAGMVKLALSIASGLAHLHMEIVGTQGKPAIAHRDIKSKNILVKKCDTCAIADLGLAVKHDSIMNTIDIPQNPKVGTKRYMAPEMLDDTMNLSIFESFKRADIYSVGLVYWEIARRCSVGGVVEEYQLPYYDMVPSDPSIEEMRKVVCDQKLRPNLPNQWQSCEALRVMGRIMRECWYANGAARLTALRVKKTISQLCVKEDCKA

[2] = target: T2, human ALK7-Fc comprising protein (human, UniProt Q8NER5 22-113); experiment: SPR (Biacore T100/T200); antibody captured on FAB chip, ALK7-Fc comprising protein as analyte; 1:1 model
T2 construct: also called hALK7-Fc; not shown: Fc part and any linker
T2 sequence: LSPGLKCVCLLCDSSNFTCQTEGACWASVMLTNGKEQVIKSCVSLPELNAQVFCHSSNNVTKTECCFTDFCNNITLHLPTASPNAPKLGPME

[3] = target: T2, human ALK7-Fc comprising protein; experiment: as above; remark: listed apart in the source
Procedure: (§1) Experiments were performed using a Biacore T100/T200 biosensor (Biacore/GE Healthcare) at 25 and 37° C. ALK7 antibodies were captured on custom made FAB chip. A concentration series of ALK7-Fc comprising protein was injected over the flow cells at a flow rate of […]. To obtain kinetic rate constants the corrected data were fit to a 1:1 interaction model using BiaEvaluation software (GE Healthcare). The equilibrium binding constant KD was determined by the ratio of binding rate constants kd/ka.

[4] = target: T3, rat Alk7-Fc comprising protein (rat, UniProt P70539 26-113); experiment: as above
T3 construct: not shown: Fc part and any linker
T3 sequence: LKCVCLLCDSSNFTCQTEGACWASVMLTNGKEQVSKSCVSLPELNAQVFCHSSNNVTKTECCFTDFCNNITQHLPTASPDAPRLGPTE
Procedure: as §1

[5] = target: T4, ALK7-Fc comprising protein (Homo sapiens (Human), UniProt Q8NER5 21-113); experiment: SPR (Biacore T100/T200), 25 °C; antibody captured on FAB chip, ALK7-Fc comprising protein as analyte; 1:1 model
T4 construct: not shown: The Fc part and any linker of the fusion; The construct's exact ALK7 limits are not seen either
T4 sequence: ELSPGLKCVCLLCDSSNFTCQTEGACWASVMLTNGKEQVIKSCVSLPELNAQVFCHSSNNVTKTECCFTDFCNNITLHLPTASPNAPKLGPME
Procedure: as §1, with “comprisingprotein” for “comprising protein”, “kd/kₐ.” for “kd/ka.”

Row | Binder | Kd [5] [nM] | koff [5] [s⁻¹] | kon [5] [M⁻¹ s⁻¹] | further results
1 | B1 | – | – | – | Increase in lipolysis activity (%) [1]: 45.8%; Kd [2]: 247 nM; koff [2]: 0.0222 s⁻¹; kon [2]: 89600 M⁻¹ s⁻¹
2 | B2 | – | – | – | Kd [3]: 201 nM; koff [3]: 0.00916 s⁻¹; kon [3]: 45600 M⁻¹ s⁻¹; Kd [4]: 8.14 nM; koff [4]: 0.000139 s⁻¹; kon [4]: 17100 M⁻¹ s⁻¹
3 | B3 | – | – | – | Kd [3]: 15.1 nM; kon [3]: 24300 M⁻¹ s⁻¹; Kd [4]: 22.9 nM; koff [4]: 0.000271 s⁻¹; kon [4]: 11800 M⁻¹ s⁻¹
4 | B4 | 5.33 | 0.000126 | 23600 | –
5 | B5 | 12.4 | 0.000291 | 23500 | –
6 | B6 | 0.87 | 2.59e-05 | 29900 | –
7 | B7 | 0.33 | 1.27e-05 | 38300 | –
8 | B8 | 0.44 | 1.21e-05 | 27400 | –
